From publication PMC8782923, “A Klotho-derived peptide protects against kidney fibrosis by targeting TGF-β signaling” (Nature Communications, 2022)

Biological target: Recombinant TGF-β receptor 2 protein (UniProt P37173)
Test: SPR; Biacore T200, 25 °C; TβR2 amine-coupled on a CM5 chip (50 µg/ml in 10 mM acetate pH 4.0); peptides in PBS injected at 60 µl/min, 180 s association, 540 s dissociation; 1:1 binding model

Sequence of Recombinant TGF-β receptor 2 protein (P37173 23-166): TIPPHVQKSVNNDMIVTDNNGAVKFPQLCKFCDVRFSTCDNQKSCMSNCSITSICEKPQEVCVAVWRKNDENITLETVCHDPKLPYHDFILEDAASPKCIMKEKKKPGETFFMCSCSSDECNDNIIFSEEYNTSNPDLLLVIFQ

Substance: KP12 (peptide)
- koff: 0.00233 s⁻¹
